Assay: soluble on expression in E. coli; label from the status in PepcDB or PDB records

Sequence | soluble on expression in E. coli
MGSDKIHHHHHHMPNVNLDALIPREDFEVIENNSRASSFNQNVSVKDLEKGEFFYAGLRKPDFQRETSDWTDEQLCEFIQSFIDGDLIPAVILWNSGPYNFVIDGAHRLGALISWINDDYGDGHISQKFFNNEIDDEQKDIANKTRERIKNTVKPYSDYKKVILDSSDCDRGILEKALSLGRTSIQLQWVTGGAEKAELSFFKINQKASKINDTEIELLKSRRKAFAIASRAIIRAGTGHQYWSKFDNDVMQNIETMAKEIHSLIFLPKVSGAVRTLDLPLVKKHNSPQTNSFIFDLVKKCNNVPVNTIKIDDDDNGKLTVEYLKNVRKFLRRINSSHPSSLGLHPLVYFYNKRGNHIYSAILAWVDTIVTIEKTKVSLSSFLFIRSDLEKFLIKYKHFISGVNAKYGSGVKSYKHILKINSIIINQLQKRESEKYIVDSILNEYGFLSESDDVNVTSARFSTDIKSQIYIQETLPKTSTCSHCHGFIHQNSISFDHIVRKQDGGKGNVGNGALMHPYCNTSEKN | not soluble
MGSDKIHHHHHHMEIKILVDNTAKGKFLAQSGFSAIIKDEDSKILFDCGQNAHVFENNLKLMGEDDDFDAVIFSHGHYDHTDGFNYFIEKYGENLDVPIYIHKSAFVDRYHGERYIGIDENIKNFLKNYKNLKLIEDPFKISENLIISGTIPRTNFYERENFEMIENGQKVDDIIIDDMFVIVKDIIISGCTHSGLINCITHAKTLKEVNGIIGGFHMGTASENYINQVKNYLKTQNFRLVSPVHCTGFNATKELSDISGFKFGHVGSVFEI | not soluble
MGSDKIHHHHHHMRALLCGYYGEGNGGDEALLAALLQLLPPTVEPLVLSGNPAATRTCYGVEACDRRSGAAVWQALRRSDLFIFGGGSLIQDVTSWTSPLYYCGLMGLAQQLGLKTIAWAQGIGPLQRKRTRWLARRTFQHCDRITVRDRGSAALLKEWGISVAIAPDPVWALEPLPLDQPLSNQEAIAVCLRPHPELTPERSDRLKAALTTLQSQTQAPILLIPFHHQQDRPLAAQWASEIPQAEVLDWQHPRQLLSYFQSVRLTIAMRFHGLVMAAAAGNRCFGLSYDPKVRRFLDALEQPGWDLPEIPDSAEAIAAAWLESWQAEPIHAAAIADLRQQVDVHRQALVF | not soluble
GAEPKGLLRVDLPVSLGRMVVIPALPEFTRRYPQVRLEIGMSDRPVDLIREGVDCVLRAGAALDEALVARPLGSLTQITCASREYLQQHGTPLQLEDLAHHQVIEYFSASTSKRYGLEFVGEGGAPDHGLACSISVNSADGY | not soluble
MSLDYANGNHVLIIPKYKGSLLFTKHKIRGIEFPGGKREKGEASETAAAREVFEETGATIKYCEYIAQYKVDRQIGMSFTKDVFMVEIEAITEQPDYFETDGPLLYKSLSEIPEDKKSYLLKDPAILQCLERVIELGFYSEGHHHHHH | not soluble
DMWVYCETQAGDLVDVSKEMLGKARELMNDYNAAYDEDERVVAVLIGAAASDHVEDVIAYGADLVVYHEDDRLDRFRHQPYTEIFCDMARAGGDLAADGREETEWKDYHEPRYTVFPATNNGRDLSALVQGELDSGLASDCSGLYIESAMISNPAKVGTAGDKKEFERVLHMKRPDFSGFEYSTILCIDKPHRDFHPQGASVIPGSFEMPDPDYERDGEVVDYGMDIDDDWFTVEVEEYDRLSGGVD | not soluble
MSLMLKKNDIIQVAISDLSHEGAGVAKHDGFVFFVDNALPEEVIDMRVLKVNKNSGFGKVEAYHYLSSARNADVNLTYLRTGIADLGHLTYEDQLTFKKKQVQDSLYKIAGISDVTVESTIGMTEPLAYRNKAQVPVRRVNGQLETGFFRKHSHDLIPISDYYIQDKEIDRLINFTRDLLRRFDIKPYDETEQTGLLRNIVVRRGHYSGEMMLVLVTTRPKVFRVDQVIEKIVEAFPAVVSIIQNINDKNTNAIFGKDFKTLYGKDTITDSMLGNNYAISAQSFYQVNTVMAEKLYQTAIAFSDLSKDDIVIDAYSGIGTIGLSFAKTVKAVYGVEVIEAAVRDAQQNAALNGITNAYFVADTAEHAMATWAKDGIKPSVILVDPPRKGLTESFIQASVAMGPQKITYVSCNPATMARDIKRYQELGYKLAKVQPVDLFPQTHHVECVVLLIKEEGHHHHHH | soluble
MGSDKIHHHHHHMKKLALISLDGNGIYNLKYMPFLSELAEKGDIFTVDSIFPTLTDLVHTTVMTGVEPRHHWVVENGYYDRLSGVRVKFYEYDVAFNPHKVIKAPLIQDILRQRGVRIASVSGYTMPPFSNVDVRIFPPFFSSDELYRRHGRDWKKDVWVLNSALYLYEECKPDLLLVHFASIDGMQHDHGPESREALKAVETVDSAIRALWERLKDEYAFIIFADHGQEEVHTWVNLREYLRNKGIETLRVSSGGGVHVYLKDPREREDAYEVLRRAPGVKAVFLREDLPYLNAPVSGDLIVSAKEGFWFCHHRECKGIKGKSYWVRGMHGSLNERVVKVPLVLWNLEAKKEEATLYDIAPTILKFFGVEKRVEMIGKSLI | not soluble
ASHHLRMHFKTLPAGESLGSLGLWVWGDVDQPSKDWPNGAITMTKAKKDDYGYYLDVPLAAKHRQQVSYLINNKAGENLSKDQHISLLTPKMNEVWIDENYHAHAYRPLKEGYLRINYHNQSGHYDNLAVWTFKDVKTPTTDWPNGLDLSHKGHYGAYVDVPLKEGANEIGFLILDKSKTGDAIKVQPKDYLFKELDNHTQVFVKDTDPKVYNNPYYID | soluble
MADAAPQLGKRKRELDVEEAHAASTEEKEAGVGNGTCAPVRLPFSGFRLQKVLRESARDKIIFLHGKVNEASGDGDGEDAVVILEKTPFQVEQVAQLLTGSPELQLQFSNDIYSTYHLFPPRQLNDVKTTVVYPATEKHLQKYLRQDLRLIRETGDDYRNITLPHLESQSLSIQWVYNILDKKAEADRIVFENPDPSDGFVLIPDLKWNQQQLDDLYLIAICHRRGIRSLRDLTPEHLPLLRNILHQGQEAILQRYRMKGDHLRVYLHYLPSYYHLNVHFTALGFEAPGSGVERAHLLAEVIENLECDPRHYQQRTLTFALRADDPLLKLLQEAQQS | soluble
SFDNLRNELSRPYGILFINNKIFLEFISKSIQRGSRIITVGDYVSRVLEENGIVPFLEVIDGKTKRTITQNRAITRNKEYKVTNEAGKIRFEIFEIMENILKDREGGVVFVDGEEDLLVIPVTLSANHGDIVIYGQPNAGAVVIIVNEMIRWRVRDILEKAIVKE | not soluble
AHPLENAWTFWFDNPQGKSRQVAWGSTIHPIHTFSTVEDFWGLYNNIHNPSKLNVGADFHCFKNKIEPKWEDPICANGGKWTISCGRGKSDTFWLHTLLAMIGEQFDFGDEICGAVVSVRQKQERVAIWTKNAANEAAQISIGKQWKEFLDYKDSIGFIVHEDAKRSDKGPKNRYTV | soluble
MEAEMSDERCALVLEGGAMRGMYTAGVLDCFMDHDISFDAVIGVSAGALFGVNLLSKQRGRVIRYNKRFNSDKNYMGIRPLLREKNIVSTKYAYDTVPRELDPFDDEEYKKSDIPFYAVVTNIRTGKPEYVQIKSVFDQMDVLRASGSMPVVSKPVKLGNEWYLDGAVTDSIPYEHMLDMGYDRVVVVLTKPADYIKKPMPRLFTSVYKKRFPRFYEAFSNRHIMYNYQLEHLKELEKQGIAEVLRPSEHIKISKVEKDPNKLESLYQLGLRDAKRLLADKQGMEKQ | not soluble
HRVGLYEKALPNHLSWEEKLACTKELGFDFLEISVDESDERRSRLDWDDATIYSLHRLCEEYGVPLQSMCLSAHRKFPFGSADPALRDEALKIMQKAITLAYKLGIRTIQLAGYDVYYEPANSATHQRFIEGMQHAARLAERAGVMLAVEIMDTPYLNALSKFEVLNRQIQSPFFTAYPDVGNISGWNYDLLTELSLSKPHITQIHLKDTYKVSEQYAGQFRDLVIGEGDVDFDELFCRLKALDCVVPLVIEMWAHDEQWQQHIHTAQRRLNQACDRAELP | not soluble
MKKLFALLFISMISGMIMAQIPEVSGTIVFKKDGQPVVGALVSVLGTDISTITDVDGRFTLKEIPEKAQRIRVKYIGMQPKDVKIRPIMNVTLDLEKKLAFFIQAGVGVSGYNLENNNEDIYGGNNHLYIQGGVGLNYNFSTYFSLQPSVNVVAKGCKNMGRRGSDGQGEITVDPVYLEIPVLIAARFIISDFGRLIFNAGPYAAIGIAGKGKYTDEWEGTSMKFDLFSGDEAVLKRFDAGVQAGFAYEIKHIGFSYTFGYGLLKPFKEWNKEWGATPHNISHNFGLKYIF | not soluble
MGFDASVLKSVLEQFVDEIGEESVDLIEDRPRFAHAVVVVTDDATGELCQASCIRQLDDVILHETSVANVTSEWMDEEIQRALRELTESRELLDTPRNSVFVEEKHEKQKTVTTTTTSTETSRNTSSRVEFPSMARRTRSTSAARRFN | not soluble

— the DeepSol protein solubility set
